Experimental data: patent publication US12428485B2, “Compositions and methods to block and bind CCR2 to modulate cellular function” (The Research Foundation for The State University of New York, priority 2019, dated 2025)

Key:
[1] = test system: TNBCs in the mammary fat pads; experiment: TNBC tumor growth, dual epitope blocking; format: in vivo, female BALB/c mice; conditions: scFvs 1 mg/kg, SMA 2 mg/kg, tail vein, days 7, 9, 12, 14, 16, 18
Description: Further, we evaluated the effect of dual epitope blocking of CCCR2 on tumor growth. TNBCs were injected into the mammary fat pads of female BALB/c mice. Treatment of tumored mice started on days 7, 9, 12, 14, 16, and 18. To enhance the circulation half-life of the NTD-scFv and ECL2-scFv, we used site-directed mutagenesis to introduce a cysteine at the C-terminus of the scFvs for covalent attachment of a PEG-maleimide with molecular weight of 20 kDa. Animals (n=10 per group) were systemically (via tail vein injection) treated with (1) PBS, (2) CCR2-small molecule antagonist (SMA), (3) PEG(20K)-NTD-scFv, (4) PEG(20K)-ECL2-scFv, and (5) a NTD and ECL2 combo (co-dosing of PEG(20K)-NTD-scFv and PEG(20K)-ECL2-scFv).

[2] = test system: triple-negative breast cancer (TNBC) tumors; experiment: Flow cytometry of immune cells in harvested TNBC tumors; format: in vivo, BALB/c mice
From the text: At study completion, the tumors were harvested, digested, and single cell suspensions stained for immune cells. Dual-epitope blocking of CCR2 reduced TAMs, MDSCs, and M2-Macrophages and increased M1-Macrophages in triple-negative breast cancer (TNBCs).
We observed that dual-epitope scFv combination treatment outperforms small molecule CCR2 antagonist (SMA) and decreased tumor-associated macrophages (TAMs), myeloid-derived suppressor cells (MDSCs), and M2-macrophages and increased M1-macrophages. Single cell suspension from the harvested tumors were analyzed by flow cytometry. The cells were stained for (A) CD68+ TAMs, (B) MDSCs, (C) MHC class II macrophages (M1), and (D) CD206+ macrophages (M2).
Treatment groups included: PBS, CCR2 small molecule antagonist (SMA), PEG(20K)-ECL2-scFv, PEG(20K)-NTD-scFv, and NTD & ECL2 combination (co-dosing of PEG(20K)-ECL2-scFv and PEG(20K)-NTD-scFv), with *p<0.05, **p<0.01, and ***p<0.001 by one-way ANOVA followed by Tukey's post-test.

human CCR2 = molecular target: T1, human CCR2 (Homo sapiens, UniProt P41597); experiment: Cross-reactivity with human CCR2; format: binding
T1 construct: endogenous in cells; host or cells: MDA-MB-231 human breast cancer cells
T1 sequence (P41597 whole entry): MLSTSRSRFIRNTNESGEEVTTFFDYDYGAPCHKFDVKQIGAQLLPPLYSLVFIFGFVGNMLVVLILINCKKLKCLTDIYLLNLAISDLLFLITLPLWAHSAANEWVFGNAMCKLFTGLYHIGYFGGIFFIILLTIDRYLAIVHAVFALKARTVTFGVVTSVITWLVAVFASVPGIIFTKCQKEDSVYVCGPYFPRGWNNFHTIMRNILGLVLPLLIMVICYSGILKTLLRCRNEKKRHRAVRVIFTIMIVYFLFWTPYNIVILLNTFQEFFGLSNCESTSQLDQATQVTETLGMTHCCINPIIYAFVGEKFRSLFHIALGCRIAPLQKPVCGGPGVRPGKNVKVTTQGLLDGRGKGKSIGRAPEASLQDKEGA

[3] = test system: RAW 264.7 macrophage cells; experiment: Cell binding analysis by flow cytometry, RAW 264.7; set-up: species or system mouse; conditions: fluorescently labeled scFv
Description: FIG. 13. Binding of monomeric 58C-scFv (circles), low valency 58C-scFv attached to liposomes (triangles), and high valency 58C-scFv attached to liposomes (squares) to RAW 264.7 macrophage cells as determined by flow cytometry. […] The liposomes were incubated with DyLight 650 NHS Ester labeled 58C-scFv at 4° C. overnight. Cells were detached with 5 mM EDTA and re-suspended in PBS to a concentration of 50,000 cells per 300 μL. The cells were incubated with various dilutions of DyLight 650 NHS Ester labeled 58C-scFv (free, low degree of valency, or high degree of valency) for 1 h at 4° C. Cells were washed three times with 5% BSA and analyzed in the APC channel of a MACSQuant Analyzer 10 flow cytometer (Miltenyi Biotec, Bergisch Gladbach, Germany).
Cells were detached with 5 mM EDTA and re-suspended in PBS to a concentration of 50,000 cells per 300 μL. Cells were plated in a 48-well plate and incubated for 30 min at 4° C. After removing the PBS solution, the cells were incubated with various dilutions of DyLight 650 NHS Ester labeled 58C-scFv for 1 h at 4° C. Cells were washed three times with 5% BSA, detached with EDTA, and analyzed in the APC channel of a MACSQuant Analyzer 10 flow cytometer (Miltenyi Biotec, Bergisch Gladbach, Germany).

4T1 breast cancer cells = experiment: Cell binding by flow cytometry, 4T1; conditions: MFI
From the text: FIG. 16. ECL2-scFv binding to the ECL2 domain of the CCR2 chemokine receptor.

[4] = test system: RAW 264.7 mouse macrophages; experiment: Macrophage polarization, RT-PCR of M1/M2 marker genes, RAW 264.7; format: cell-based; conditions: RAW 264.7, 24 h; LPS 100 ng/mL, IL-4 20 ng/mL, 58C-scFv 1 μM
Description: RAW 264.7 mouse macrophages were incubated with either LPS (100 ng/mL), IL-4 (20 ng/mL; PeproTech, Rocky Hill, NJ), or 58C-scFv (1 μM) for 24 h. For the multivalency studies, RAW 264.7 mouse macrophages were first incubated with IL-4 (20 ng/mL) for 24 h to stimulate an M2 phenotype. Following the 24 h incubation, fresh media with 58C-scFv (89 nM) was added to the cells and incubated for an additional 24 h. Total RNA was isolated with QIAzol lysis reagent (Qiagen, Germany) and total cDNA was generated using the New England Biolabs first stand synthesis kit (Ipswich, MA). RNA expression was detected by reverse transcription (RT)-PCR performed with the SYBR Green PCR kit (Qiagen). For each sample, the ΔΔCt value was calculated. Experiments were performed in triplicate. […]
To assess the effects of the anti-CCR2 scFvs on macrophage polarization, RAW 264.7 and bone marrow-derived macrophages (BMDMs) were treated with NTD-scFv and ECL2-scFv. […] To determine whether these changes were additive, synergistic, or antagonistic, the combination indices (CI) were calculated for NTD-scFv and ECL2-scFv by treating cells with a combination of NTD-scFv and ECL2-scFv. CI was calculated by: CI=(CA,X/ICX,A)+(CB,X/ICX,B), where CA,X and CB,X are the concentration of drug A (in this case NTD-scFv) and B (here, ECL2-scFv) used in combination to achieve x % drug effect. […]

Molecule: Cc1ccc2c(c1)C1(CCN(CCc3nc(-c4ccccc4)oc3C)CC1)OC(=O)N2 [RS 504393]
- reduction in tumor volume, order among treatment groups [1]: weakest effect
- effects on TAMs, MDSCs, M1 and M2 macrophages compared to PBS control ([2]; FIG. 24A-D, SMA 2 mg/kg): not significant
- change in Tregs, CD8+ and CD4+ T cells compared to PBS treated mice ([2]; flow cytometry): no statistically significant reduction

B1: ECL2-scFv: scFv against the 2nd extracellular loop (ECL2) of CCR2; Example 3 names scFv 4h, SEQ ID NO:6 (protein, listed as Homo sapiens)
scFv: MKKTAIAIAVALAGFATVAQADYKDDDDKLQSVLTQPPSASGTPGQRVTISCSGSSSNIGSHTVNWYQQLPGTAPKLLIYRNNQRPSGVPDRFSGSKSGTSASLAISGLRSEDEADYYCAAWDDSLSGVVFGGGTKLTVLGEGKSSGSGSESKASQVTLKESGAEVKKPGASVKVSCKASGYTFTNFYIHWVRRAPGQGLEWMGIINPSDGRTTYAQKFQGRVTMTRDTSTSTLYMELTSLRSEDTAVYYCGRGGHYSNYFGQPSTWGQGTLVTVSSVEAS
- cross-reactivity, binding to human CCR2 (human CCR2): bind to human CCR2
- binding to RAW 264.7 cells [3]: binds
- binding to 4T1 breast cancer cells (4T1 breast cancer cells): binds

B2: IL-4: interleukin, M2 promoting agent (protein, UniProt P05112 25-153, looked up)
Interleukin-4: HKCDITLQEIIKTLNSLTEQKTLCTELTVTDIFAASKNTTEKETFCRAATVLRQFYSHHEKDTRCLGATAQQFHRHKQLIRFLKRLDRNLWGLAGLNSCPVKEANQSTLENFLERLKTIMREKYSKCSS
- macrophage polarization, M1/M2 gene expression compared to the untreated control [4]: increased both Arg-1 and Mgl2 gene expression
